Data: patent US20190389966A1 (Regeneron, published 2019)

Molecular target: T1, MUC16 on OVCAR-3 cells (human, UniProt Q8WXI7 1-14507)
T1 construct: whole, on cells; also called Mucin 16
Assay: FACS binding to OVCAR-3 cells

B1: BSMUC16/CD3-001 (bispecific antibody, V domains shown)
VH 1: QVQLVESGGGLVKPGGSLRLSCAASGFTFSNYYMSWVRQAPGKGLEWISYISGRGSTIFYADSVKGRITISRDNAKNSLFLQMNSLRAEDTAVYFCVKDRGGYSPYWGQGTLVTVSS
VH 2: EVQLVESGGGLVQPGRSLRLSCAASGFTFDDYSMHWVRQAPGKGLEWVSGISWNSGSKGYADSVKGRFTISRDNAKNSLYLQMNSLRAEDTALYYCAKYGSGYGKFYHYGLDVWGQGTTVTVSS
VL: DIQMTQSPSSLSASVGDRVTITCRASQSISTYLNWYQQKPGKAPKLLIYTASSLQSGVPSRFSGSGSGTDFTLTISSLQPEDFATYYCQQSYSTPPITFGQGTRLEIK
notes: It was biotinylated in the ELISA and DFO/89Zr-labelled at Gln 295 for PET; also called anti-MUC16xCD3 bispecific antibody; BSMUC16/CD3-0001
- binding result: binds
